{"source": "paper PMC10941009", "about": "“Structural basis for specific DNA sequence recognition by the transcription factor NFIL3” (The Journal of Biological Chemistry, 2024)", "assay_in_all_cases": "ITC; ITC: 20 mM Tris pH 7.5, 150 mM NaCl, 25 °C; EMSA: same buffer, 4 °C, 6% native gel in 0.5x TBE", "settings_in_all_cases": "protein: recombinant; tags: His6-SUMO removed by TEV; chain copies: 2; blunt", "key": {"C/EBPα D320E": {"biological_target": "C/EBPα D320E (human, UniProt P49715 281-340, D320E)", "sequence (P49715 281-340 D320E)": "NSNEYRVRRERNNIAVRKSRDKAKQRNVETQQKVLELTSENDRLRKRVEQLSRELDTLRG"}, "C/EBPβ E309D": {"biological_target": "C/EBPβ E309D (human, UniProt P17676 259-336, E309D)", "sequence (P17676 259-336 E309D)": "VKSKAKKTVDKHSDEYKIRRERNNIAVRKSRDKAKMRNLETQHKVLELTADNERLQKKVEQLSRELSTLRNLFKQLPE"}, "NFIL3 E111D": {"biological_target": "T1, NFIL3 E111D (human, UniProt Q16649 65-161, E111D)", "T1 sequence": "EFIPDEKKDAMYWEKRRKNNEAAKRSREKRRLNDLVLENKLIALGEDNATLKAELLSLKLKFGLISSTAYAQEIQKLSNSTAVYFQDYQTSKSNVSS"}, "NFIL3 N112D": {"biological_target": "T2, NFIL3 N112D (human, UniProt Q16649 65-161, N112D)", "T2 sequence": "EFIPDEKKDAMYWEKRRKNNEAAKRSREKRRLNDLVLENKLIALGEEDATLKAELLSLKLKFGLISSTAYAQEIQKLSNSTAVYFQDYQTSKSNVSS"}, "NFIL3 E111Q": {"biological_target": "T3, NFIL3 E111Q (human, UniProt Q16649 65-161, E111Q)", "T3 sequence": "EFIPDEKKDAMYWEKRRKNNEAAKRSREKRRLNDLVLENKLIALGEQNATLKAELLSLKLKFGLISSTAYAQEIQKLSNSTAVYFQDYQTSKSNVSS"}, "NFIL3 R95Q": {"biological_target": "T4, NFIL3 R95Q (human, UniProt Q16649 65-161, R95Q)", "T4 sequence": "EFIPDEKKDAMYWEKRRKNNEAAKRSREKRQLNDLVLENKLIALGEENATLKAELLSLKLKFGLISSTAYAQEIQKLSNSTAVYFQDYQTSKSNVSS"}, "NFIL3 A113T": {"biological_target": "T5, NFIL3 A113T (human, UniProt Q16649 65-161, A113T)", "T5 sequence": "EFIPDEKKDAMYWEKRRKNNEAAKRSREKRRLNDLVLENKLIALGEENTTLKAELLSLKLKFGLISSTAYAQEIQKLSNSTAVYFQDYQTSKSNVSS"}, "NFIL3 A113V": {"biological_target": "T6, NFIL3 A113V (human, UniProt Q16649 65-161, A113V)", "T6 sequence": "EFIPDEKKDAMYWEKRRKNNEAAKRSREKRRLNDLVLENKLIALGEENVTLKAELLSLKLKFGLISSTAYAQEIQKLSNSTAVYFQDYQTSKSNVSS"}, "NFIL3 N84A": {"biological_target": "T7, NFIL3 N84A (human, UniProt Q16649 65-161, N84A)", "T7 sequence": "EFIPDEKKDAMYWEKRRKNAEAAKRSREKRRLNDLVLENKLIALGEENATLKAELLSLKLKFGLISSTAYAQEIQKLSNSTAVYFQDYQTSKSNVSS"}, "NFIL3 R94H": {"biological_target": "T8, NFIL3 R94H (human, UniProt Q16649 65-161, R94H)", "T8 sequence": "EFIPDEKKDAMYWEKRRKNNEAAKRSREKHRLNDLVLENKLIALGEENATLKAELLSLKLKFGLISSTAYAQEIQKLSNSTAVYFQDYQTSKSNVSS"}, "NFIL3 E78G": {"biological_target": "T9, NFIL3 E78G (human, UniProt Q16649 65-161, E78G)", "T9 sequence": "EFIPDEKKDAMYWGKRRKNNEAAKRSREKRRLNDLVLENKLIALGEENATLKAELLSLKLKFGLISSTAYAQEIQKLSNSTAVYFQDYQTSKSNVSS"}}}
{"binder": "TTACGTAA (dsDNA) DNA 1: CATTACGTAATG DNA 2: CATTACGTAATG", "values": [{"measurement": "binding signal", "setting": "C/EBPα D320E", "value": "~5", "unit": "fold stronger than WT"}, {"measurement": "binding signal", "setting": "C/EBPβ E309D", "value": "~4", "unit": "fold weaker than WT"}, {"measurement": "binding signal", "setting": "NFIL3 E111D", "value": "~8", "unit": "fold weaker than WT"}, {"measurement": "Kd", "setting": "NFIL3 N112D", "value": "2150 ± 160", "unit": "nM"}, {"measurement": "Kd", "setting": "NFIL3 E111Q", "value": "200 ± 20", "unit": "nM"}, {"measurement": "Kd", "setting": "NFIL3 R95Q", "value": "8400 ± 720", "unit": "nM"}, {"measurement": "Kd", "setting": "NFIL3 A113T", "value": "220 ± 30", "unit": "nM"}, {"measurement": "Kd", "setting": "NFIL3 A113V", "value": "120 ± 10", "unit": "nM"}, {"measurement": "Kd", "setting": "NFIL3 N84A", "value": "1490 ± 110", "unit": "nM"}, {"measurement": "Kd", "setting": "NFIL3 R94H", "value": "4010 ± 740", "unit": "nM"}, {"measurement": "Kd", "setting": "NFIL3 E78G", "value": "2180 ± 150", "unit": "nM"}]}
